Among the data in paper PMC8993888 are stoichiometry N values, retold here.

Assay [1] concerns the target Ag43^EDL933 α-domain (α^43_EDL933), complete passenger domain with the autochaperone domain, from EHEC O157:H7 EDL933 (E. coli O157:H7 EDL933 (EHEC)). The experiment in a line: AUC; sedimentation velocity, 2.2 mg/mL, 25 mM HEPES, 150 mM NaCl, pH 7.0, 20 °C, 40,000 rpm, absorbance at 285 nm, c(s) analysis; monomer to dimer.
The target in assay [2] is Ag43b α-domain (α^43b) from UPEC CFT073 (E. coli CFT073 (UPEC)). Put plainly: AUC; sedimentation velocity; α^43b sample concentrated above 30 mg/ml prior to AUC analysis (Supplementary Fig. 7); monomer to dimer.
Assay [3] addresses Ag43a α-domain (α^43a) from UPEC CFT073 (E. coli CFT073 (UPEC)). Put plainly: AUC; sedimentation velocity, 2.2 mg/mL, 25 mM HEPES, 150 mM NaCl, pH 7.0, 20 °C, 40,000 rpm, absorbance at 285 nm, c(s) analysis; monomer to dimer.
Assay [4] concerns the target Ag43^UTI89 α-domain (α^43_UTI89), complete passenger domain with the autochaperone domain, from UPEC UTI89 (E. coli UTI89 (UPEC)). The assay is described as above.

For “Ag43^EDL933 α-domain (α^43_EDL933), complete passenger domain with the autochaperone domain, from EHEC O157:H7 EDL933 (domain or fragment)”, in assay [1], the stoichiometry N (as a rule, a count of units in the complex or per binding partner) came to 2.

In assay [2], “Ag43b α-domain (α^43b) from UPEC CFT073 (domain or fragment)” registered a stoichiometry N of 2.

“Ag43a α-domain (α^43a) from UPEC CFT073 (domain or fragment)” gave a stoichiometry N in assay [3] of 2.

In assay [4], “Ag43^UTI89 α-domain (α^43_UTI89), complete passenger domain with the autochaperone domain, from UPEC UTI89 (domain or fragment)” showed a stoichiometry N of 2.
